The pKd is the Kd on a negative log10 scale, so that one unit is a factor of ten. Read a low pKd as a large Kd.

pKd: −log10 of the molar value.

The target in assay [1] is HLA-B*58:01. The experiment in a line: IEDB peptide-MHC binding, purified MHC/competitive/fluorescence; filed as Kd, often an IC50 or EC50 that approximates it; ≥ and ≤ were set here for values at or beyond the usual limits of such assays.
In assay [2] the target is HLA-A*01:01. Described as above. As to conditions: source organism: Salmonella enterica subsp. enterica serovar Typhi.
The target in assay [3] is HLA-A*03:01. Described as above.
In assay [4] the target is HLA-A*26:01. The assay is described as above.
For assay [5], the target named is HLA-B*35:01. Described as above.
In assay [6] the target is HLA-B*15:01. The experiment in a line: IEDB peptide-MHC binding, purified MHC/direct/fluorescence; filed as Kd, often an IC50 or EC50 that approximates it; ≥ and ≤ were set here for values at or beyond the usual limits of such assays.
Assay [7] addresses HLA-B*51:01. The assay can be described thus: IEDB peptide-MHC binding, purified MHC/competitive/fluorescence; filed as Kd, often an IC50 or EC50 that approximates it; ≥ and ≤ were set here for values at or beyond the usual limits of such assays. As to conditions: source organism: Yersinia pestis Antiqua.
For assay [8], the target named is HLA-B*08:01. The description is as above.
In assay [9] the target is HLA-B*15:17. Described as above. As to conditions: source organism: Vaccinia virus WR.
Assay [10] deals with HLA-A*68:02. Described as above. As to conditions: source organism: Vaccinia virus WR.
Assay [11] concerns the target HLA-A*31:01. The description is as above. As to conditions: source organism: Vaccinia virus WR.
The target of assay [12] is HLA-A*02:06. The description is as above. As to conditions: source organism: Vaccinia virus WR.
For assay [13], the target named is HLA-A*69:01. The assay can be described thus: IEDB peptide-MHC binding, purified MHC/direct/fluorescence; filed as Kd, often an IC50 or EC50 that approximates it; ≥ and ≤ were set here for values at or beyond the usual limits of such assays.
In assay [14] the target is HLA-B*58:01. Described as above.
Assay [15] deals with HLA-A*11:01. The assay is described as above.
Assay [16] concerns the target HLA-A*02:01. Described as above.
Assay [17] deals with HLA-A*01:01. The assay is described as above.
For assay [18], the target named is HLA-B*48:01. Described as above. As to conditions: source organism: Camelpox virus M-96.
Assay [19] concerns the target HLA-B*18:01. The assay is described as above.
For assay [20], the target named is HLA-B*57:01. The assay is described as above. As to conditions: source organism: Camelpox virus M-96.
Assay [21] has as its target HLA-B*46:01. Described as above.
Assay [22] addresses HLA-B*07:02. The assay is described as above.
Assay [23] concerns the target HLA-B*40:01. The assay is described as above.
Assay [24] concerns the target HLA-A*03:01. Described as above.
The target of assay [25] is HLA-B*27:05. Described as above.
Assay [26] deals with HLA-B*15:01. The experiment in a line: IEDB peptide-MHC binding, purified MHC/competitive/fluorescence; filed as Kd, often an IC50 or EC50 that approximates it; ≥ and ≤ were set here for values at or beyond the usual limits of such assays.
Assay [27] has as its target HLA-A*30:01. The description is as above. As to conditions: source organism: Vaccinia virus WR.
Assay [28] addresses HLA-B*18:01. The assay is described as above. As to conditions: source organism: Vaccinia virus WR.
The target in assay [29] is HLA-A*31:01. The experiment in a line: IEDB peptide-MHC binding, purified MHC/direct/fluorescence; filed as Kd, often an IC50 or EC50 that approximates it; ≥ and ≤ were set here for values at or beyond the usual limits of such assays.
Assay [30] addresses HLA-A*26:01. The assay is described as above.
Assay [31] has as its target HLA-A*24:02. The description is as above. As to conditions: source organism: Vibrio parahaemolyticus.
The target of assay [32] is HLA-B*08:02. The description is as above. As to conditions: source organism: Vibrio parahaemolyticus RIMD 2210633.
Assay [33] concerns the target HLA-B*44:02. The assay is described as above. As to conditions: source organism: Vibrio parahaemolyticus.
[34] abbreviates: source organism: Salmonella enterica subsp. enterica serovar Typhi.
The mark [35] stands for this setting: source organism: Camelpox virus M-96.
Setting [36] is: source organism: Bacillus anthracis str. A2012.
Setting [37] is: source organism: Vibrio parahaemolyticus.
[38] abbreviates: source organism: Yersinia pestis Nepal516.
The mark [39] stands for this setting: source organism: Shigella flexneri 5 str. 8401.

In the case of VTIGNAYIY, the pKd in [1] (setting [34]) is 7.20; in assay [2] it was 5.46; in assay [3] (setting [34]), at most 4.70; in assay [4] (setting [34]), 5.98.
With LMLADHPEY, the pKd in assay [5] (source organism: Mycobacterium tuberculosis C) was 7.73; in assay [6] (source organism: Mycobacterium tuberculosis), 6.50.
On to EAKLFFQVI, for which the pKd in assay [7] is 6.14; in assay [8] (source organism: Yersinia pestis Antiqua), 6.12.
LTFLHTLYK: the pKd is 6.65 in assay [9]; 5.96 in assay [10]; 6.65 in assay [11]; 5.96 in [12]; at most 4.70 in [13] (setting [35]); at most 4.70 in assay [14] (setting [35]). Besides, the pKd is 6.98 in assay [15] (setting [35]); at most 4.70 in [16] (setting [35]); at most 4.70 in assay [17] (setting [35]); at most 4.70 in assay [18]; at most 4.70 in assay [19] (setting [35]); at most 4.70 in assay [20]. Besides, the pKd in assay [21] (setting [35]) is at most 4.70; in [22] (setting [35]), at most 4.70; in [6] (setting [35]) it was at most 4.70; in [23] (setting [35]), at most 4.70; in assay [24] (setting [35]), 6.80; in assay [25] (setting [35]) it was at most 4.70.
With MGMNAYFAY, the values for the pKd in [26] (setting [36]) and in assay [5] (setting [36]) were 7.21 and at least 10.00, respectively.
With VSFLISWSL, the pKd in assay [1] (setting [36]) is 5.58.
For the sequence FVHTLLKTY, the pKd was at most 4.70 in assay [27]; at most 4.70 in assay [28]; 6.51 in assay [26] (source organism: Vaccinia virus WR); 7.26 in [9]; 5.53 in [12]; at most 4.70 in assay [13] (setting [35]). Moreover, the pKd in assay [14] (setting [35]), in assay [15] (setting [35]), in assay [16] (setting [35]), in [17] (setting [35]), in [18] and in assay [20] was at most 4.70 throughout. The pKd is at most 4.70 in [23] (setting [35]); at most 4.70 in [24] (setting [35]); at most 4.70 in assay [29] (setting [35]); at most 4.70 in assay [25] (setting [35]); 7.13 in assay [30] (setting [35]).
Consider ALSMGINTV, for which the pKd in [8] (source organism: Vibrio parahaemolyticus K5030) was at most 4.70; in assay [13] (setting [37]), 5.70; in assay [14] (setting [37]), at most 4.70; in assay [15] (setting [37]), at most 4.70; in [16] (setting [37]), 7.45; in assay [31] it was at most 4.70. Moreover, the pKd in assay [17] (setting [37]), in assay [32], in [19] (setting [37]), in assay [21] (setting [37]), in assay [22] (setting [37]) and in assay [6] (setting [37]) was at most 4.70 throughout. The pKd in assay [23] (setting [37]), in assay [24] (setting [37]), in [33], in assay [29] (setting [37]), in [25] (setting [37]) and in assay [30] (source organism: Vibrio parahaemolyticus RIMD 2210633) was at most 4.70 each time.
Turning to VVNDFTVSY, the pKd in assay [3] (setting [38]) was 6.92; in assay [5] (setting [38]), 8.46; in [4] (setting [38]) it was 6.65.
With MFAAGLILY, the pKd was at most 4.70 in assay [26] (setting [39]), at most 4.70 in assay [3] (setting [39]) and 5.97 in assay [5] (setting [39]).

Values taken from the Immune Epitope Database (IEDB).
